Source: patent US20200165325A1

How the values were obtained:
[1] = biological target: HIV-1 Env of strain 0330.v4.c3 (HIV-1)
[2] = biological target: HIV-1 Env of strain 0815.v3.c3 (HIV-1)
[3] = biological target: HIV-1 Env of strain 1006_11_C3_1601 (HIV-1)
[4] = biological target: HIV-1 Env of strain 1054_07_TC4_1499 (HIV-1)
[5] = biological target: HIV-1 Env of strain 211-9 (HIV-1)
[6] = biological target: HIV-1 Env of strain 231965.c01 (HIV-1)
[7] = biological target: HIV-1 Env of strain 3016.v5.c45 (HIV-1)
[8] = biological target: HIV-1 Env of strain 3103.v3.c10 (HIV-1)
[9] = biological target: HIV-1 Env of strain 3301.v1.c24 (HIV-1)
[10] = biological target: HIV-1 Env of strain 3415.v1.c1 (HIV-1)
[11] = biological target: HIV-1 Env of strain 3718.v3.c11 (HIV-1)
[12] = biological target: HIV-1 Env of strain 620345.c01 (HIV-1)
[13] = biological target: HIV-1 Env of strain 62357_14_D3_4589 (HIV-1)
[14] = biological target: HIV-1 Env of strain 6480.v4.c25 (HIV-1)
[15] = biological target: HIV-1 Env of strain 6535.3 (HIV-1)
[16] = biological target: HIV-1 Env of strain 6540.v4.c1 (HIV-1)
[17] = biological target: HIV-1 Env of strain 6811.v7.c18 (HIV-1)
[18] = biological target: HIV-1 Env of strain 703357.C02 (HIV-1)
[19] = biological target: HIV-1 Env of strain 89-F1_2_25 (HIV-1)
[20] = biological target: HIV-1 Env of strain 928-28 (HIV-1)
[21] = biological target: HIV-1 Env of strain AC10.0.29 (HIV-1)
[22] = biological target: HIV-1 Env of strain C3347.c11 (HIV-1)
[23] = biological target: HIV-1 Env of strain CAP210.2.00.E8 (HIV-1)
[24] = biological target: HIV-1 Env of strain CAP45.2.00.G3 (HIV-1)
[25] = biological target: HIV-1 Env of strain CNE20 (HIV-1)
[26] = biological target: HIV-1 Env of strain CNE21 (HIV-1)
[27] = biological target: HIV-1 Env of strain Ce0393_C3 (HIV-1)
[28] = biological target: HIV-1 Env of strain Ce1176_A3 (HIV-1)
[29] = biological target: HIV-1 Env of strain Ce2060_G9 (HIV-1)
[30] = biological target: HIV-1 Env of strain Ce703010054_2A2 (HIV-1)
[31] = biological target: HIV-1 Env of strain Du172.17 (HIV-1)
[32] = biological target: HIV-1 Env of strain Du422.1 (HIV-1)
[33] = biological target: HIV-1 Env of strain HIV-16845-2.22 (HIV-1)
[34] = biological target: HIV-1 Env of strain P0402_c2_11 (HIV-1)
[35] = biological target: HIV-1 Env of strain P1981_C5_3 (HIV-1)
[36] = biological target: HIV-1 Env of strain Q23.17 (HIV-1)
[37] = biological target: HIV-1 Env of strain Q259.d2.17 (HIV-1)
[38] = biological target: HIV-1 Env of strain Q461.e2 (HIV-1)
[39] = biological target: HIV-1 Env of strain Q769.d22 (HIV-1)
[40] = biological target: HIV-1 Env of strain QH0692.42 (HIV-1)
[41] = biological target: HIV-1 Env of strain R1166.c01 (HIV-1)
[42] = biological target: HIV-1 Env of strain R2184.c04 (HIV-1)
[43] = biological target: HIV-1 Env of strain REJO4541.67 (HIV-1)
[44] = biological target: HIV-1 Env of strain RHPA4259.7 (HIV-1)
[45] = biological target: HIV-1 Env of strain SC422661.8 (HIV-1)
[46] = biological target: HIV-1 Env of strain T250-4 (HIV-1)
[47] = biological target: HIV-1 Env of strain T255-34 (HIV-1)
[48] = biological target: HIV-1 Env of strain T257-31 (HIV-1)
[49] = biological target: HIV-1 Env of strain T278-50 (HIV-1)
[50] = biological target: HIV-1 Env of strain THRO4156.18 (HIV-1)
[51] = biological target: HIV-1 Env of strain TRO.11 (HIV-1)
[52] = biological target: HIV-1 Env of strain WEAU_d15_410_787 (HIV-1)
[53] = biological target: HIV-1 Env of strain ZM135M.PL10a (HIV-1)
[54] = biological target: HIV-1 Env of strain ZM233M.PB6 (HIV-1)
[55] = biological target: HIV-1 Env of strain ZM247v1(Rev-) (HIV-1)
[56] = biological target: HIV-1 Env of strain ZM249M.PL1 (HIV-1)
[57] = biological target: HIV-1 Env of strain ZM53M.PB12 (HIV-1)

NIH45-46 IgG (wild type) (antibody)
In vitro neutralization IC80 [1]: 0.3 µg/mL | In vitro neutralization IC80 [2]: 0.052 µg/mL | In vitro neutralization IC80 [3]: 0.196 µg/mL | In vitro neutralization IC80 [4]: 0.404 µg/mL | In vitro neutralization IC80 [5]: > 50 µg/mL | In vitro neutralization IC80 [6]: 0.126 µg/mL | In vitro neutralization IC80 [7]: > 50 µg/mL | In vitro neutralization IC80 [8]: 6.15 µg/mL | In vitro neutralization IC80 [9]: 0.033 µg/mL | In vitro neutralization IC80 [10]: 0.086 µg/mL | In vitro neutralization IC80 [11]: > 50 µg/mL | In vitro neutralization IC80 [12]: > 50 µg/mL | In vitro neutralization IC80 [13]: 0.19 µg/mL | In vitro neutralization IC80 [14]: 0.1 µg/mL | In vitro neutralization IC80 [15]: 0.54 µg/mL | In vitro neutralization IC80 [16]: > 50 µg/mL | In vitro neutralization IC80 [17]: 0.113 µg/mL | In vitro neutralization IC80 [18]: > 50 µg/mL | In vitro neutralization IC80 [19]: > 50 µg/mL | In vitro neutralization IC80 [20]: 0.64 µg/mL | In vitro neutralization IC80 [21]: 1.93 µg/mL | In vitro neutralization IC80 [22]: 0.094 µg/mL | In vitro neutralization IC80 [23]: > 50 µg/mL | In vitro neutralization IC80 [24]: > 50 µg/mL | In vitro neutralization IC80 [25]: > 50 µg/mL | In vitro neutralization IC80 [26]: 38.1 µg/mL | In vitro neutralization IC80 [27]: 0.936 µg/mL | In vitro neutralization IC80 [28]: 3.17 µg/mL | In vitro neutralization IC80 [29]: 0.29 µg/mL | In vitro neutralization IC80 [30]: 0.538 µg/mL | In vitro neutralization IC80 [31]: > 50 µg/mL | In vitro neutralization IC80 [32]: > 50 µg/mL | In vitro neutralization IC80 [33]: 22.6 µg/mL | In vitro neutralization IC80 [34]: 0.214 µg/mL | In vitro neutralization IC80 [35]: 0.24 µg/mL | In vitro neutralization IC80 [36]: 0.5 µg/mL | In vitro neutralization IC80 [37]: 0.154 µg/mL | In vitro neutralization IC80 [38]: 0.291 µg/mL | In vitro neutralization IC80 [39]: 0.033 µg/mL | In vitro neutralization IC80 [40]: 1.71 µg/mL | In vitro neutralization IC80 [41]: 1.21 µg/mL | In vitro neutralization IC80 [42]: 0.127 µg/mL | In vitro neutralization IC80 [43]: 0.035 µg/mL | In vitro neutralization IC80 [44]: 0.047 µg/mL | In vitro neutralization IC80 [45]: 0.13 µg/mL | In vitro neutralization IC80 [46]: > 50 µg/mL | In vitro neutralization IC80 [47]: 3.44 µg/mL | In vitro neutralization IC80 [48]: 1.38 µg/mL | In vitro neutralization IC80 [49]: > 50 µg/mL | In vitro neutralization IC80 [50]: 8.22 µg/mL | In vitro neutralization IC80 [51]: 7.49 µg/mL | In vitro neutralization IC80 [52]: 0.015 µg/mL | In vitro neutralization IC80 [53]: 2.79 µg/mL | In vitro neutralization IC80 [54]: 14.2 µg/mL | In vitro neutralization IC80 [55]: 24.5 µg/mL | In vitro neutralization IC80 [56]: 0.053 µg/mL | In vitro neutralization IC80 [57]: 0.61 µg/mL
